Tests used:
[1] = tested on: MS2 coat protein; experiment: apparent KD of MS2 coat protein, switch ON state; designed switch direction (-1 OFF switch, 1 ON switch): 1; higher = weaker reporter binding; details: FMN input: 0 or 200 uM; Eterna round: R93 (includes R88 designs)
Method in brief: (§1)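 For every design, apparent KD is the median of normalised binding-curve fits from its clusters. The RNA switches were transcribed on-chip from Illumina sequencing clusters and titrated with SNAP-549-labelled MS2 coat protein (twofold steps, 0.7 or 1.5 nM to 3 µM; 0.8–1.5 h to 10–20 min per step). Titrations used 100 mM Tris-HCl pH 7.5, 80 mM KCl, 4 mM MgCl2, without or with constant ligand.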

[2] = tested on: MS2 coat protein; experiment: apparent KD of MS2 coat protein, switch OFF state (with FMN for OFF switches, without FMN for ON switches); designed switch direction (-1 OFF switch, 1 ON switch): 1; higher = weaker reporter binding; details: FMN input: 0 or 200 uM; Eterna round: R93 (includes R88 designs)
Method in brief: as §1

Sequence | apparent KD of MS2 coat protein [1] [nM] | apparent KD of MS2 coat protein [2] [nM]
AAAAAACAUGAGGAUCACCCAUGUAAAAAUAUGGGAGGAUAUGCGAAAAGAAACAAAGAAGCAGAAGGCCUAAAAA [75%, Ex5 sub 1, 8] | 25.6 | 185
AAAAAACAUGAGGAUCACCCAUGUAGAAAUAUGGGAGGAUAUACAAAGACGAAAGUCAAAGUAGAAGGCCUAAAAA [77%, Mat - Mod of Eli, 2] | 18.2 | 57.8
AAAAAACAUGAGGAUCACCCAUGUCAAAAGACAUGAGGAUAUGUACAGACUUCGGUCUGUACAGAAGGCAUGUCAA [SS1 - 1019] | 21.1 | 31.7
AAAAAACAUGAGGAUCACCCAUGUCUUCGGACAUGAGGAUAUGUACAGACUUCGGUCUGUACAGAAGGCAUAAAAA [SS1 - 1010] | 221 | 12.6
AAAAAACAUGAGGAUCACCCAUGUGAAAAAUUCGCAGGAUAUCCCUUUUUUAAAUGGGAGGGAGAAGGGUGAAAAA [Nob's Hobby 16 - Jieux - Same State 1] | 34.8 | 112
AAAAAACAUGAGGAUCACCCAUGUGACAACAUGGGAGGAUAUACAAAGACGAGAGUCGAAGUAGAAGGCCUAAAAA [Garnet 77] | 66.1 | 32.6
AAAAAACAUGAGGAUCACCCAUGUGAGAAUAUGGAAGGAUAUACAAAGACGAAAGUCAAAGUAGAAGGUCUAAAAG [Mat - Same State 1 - Eli mod - D90] | 31.1 | 31.5
AAAACACAUGAGGAUCACCCAUGUAAAAACAUGAGAGGAUAUGCAUGGAAAAAAAACUAUGCAGAAGGCUCAUGUG [SS1 - 4] | 21.2 | 32.2
AAAACACAUGAGGAUCACCCAUGUAAAAACUUGGGAGGAUAUGCUUGGAAAACAUGCUAUGCAGAAGGCUCUAGUG [SS1 - 13] | 49.9 | 123
AAAACACAUGAGGAUCACCCAUGUAGAAAUACGGGAGGAUAUGCAAAAACGAAAGACAAAGUAGAAGGCCUAAAAG [saturn 9] | 26.2 | 67
AAAACACAUGAGGAUCACCCAUGUAGAAAUACGGGAGGAUAUGCUAAAACGAAAGACAAUGUAGAAGGCCUAAAAG [saturn 10] | 37.7 | 59.6
AAAACACAUGAGGAUCACCCAUGUCAAAAAAACACAGGAUAUCCAAAAAAAAAAAAAAAAGGAGAAGGGUGAAAAA [high kcal] | 65 | 42
AAAAGACAUGAGGAUCACCCAUGUAAAAACGUAGGAGGAUAUGUCGUGAAAAAAGACUUGGCAGAAGGCCUGUGUC [SS1 - 39] | 30 | 50.5
AAAAGACAUGAGGAUCACCCAUGUAAAGACGUGGGAGGAUAUGUAUGGAAACCAGACUGUACAGAAGGCCUCUGUC [SS1 - 72] | 165 | 243
AAAAGACAUGAGGAUCACCCAUGUCAAAACGUAGGAGGAUAUGUAUGGAAACCAUACUGUACAGAAGGCCUUUGUC [SS1 - 77] | 14 | 14.2
AAAAGACAUGAGGAUCACCCAUGUCAAAACGUAGGAGGAUAUGUCGUGAAAAAAGACUUGACAGAAGGCCUGUGUC [SS1 - 36] | 15.8 | 17.1
AAACCACAUGAGGAUCACCCAUGUAAAAAAAACACAGGAUAUGGAAACACGAAAGUGAAACCAGAAGGGUGAAAAA [77%, Mat - Mod of Eli, 26] | 18.4 | 26.2
AAAGAAAAACUAGAGGAUAUUUGAAUGGUAACAUGAGGAUCACCCAUGUGAAGAAAGGAACAUGAGGAGAAGGCUAGAAGAAAAA [JL Nando mod 16] | 17.5 | 74.7
AAAGAAUGAAGGCAGGAUAUGUGAAAAAAAACAUGAGGAUCACCCAUGUAAUAAAUGGGUACAAAACAGAAGGGCCAAGAAACAA [SS 2 Tesla 3] | 380 | 700
AAAGACAUAGUUCAGGAUAUGGUAAUAGUCACAUGAGGAUCACCCAUGUGCAUUUAUAUGCGCGAUCAGAAGGGAGGUAGAUAAA [SameState2 Malc#17] | 24.9 | 21.5
AAAUAAAUGACUCAGGAUAUGUCAGAGAAAACAUGAGGAUCACCCAUGUAAUAAUAACAUGUGUGACAGAAGGGAGUCAAUAAAU [LROPPY Same State 2 - v01_deltaG=.6] | 27.2 | 15
AAAUAAAUGACUGAGGAUAUAUCGAUGAAAACAUGAGGAUCACCCAUGUGAUAAUAAAAAGGGUGAUAGAAGGUAGUCAACAAAC [Mod 11 of Pariah 4 by Hyphema in Round 1] | 52.1 | 211

Sequence | apparent KD of MS2 coat protein [1] [nM] | apparent KD of MS2 coat protein [2] [nM]
AAAUAUAAAGACUAGGAUAUACUAAAAUAAACAUGAGGAUCACCCAUGUAAAAAAUAAAACUCAUGUAGAAGGAGUAAAUAUAAA [ss2 10th] | 13.5 | 15.5
AAAUGAUCAUGUGAGGAUAUCCAUAAUAAAACAUGAGGAUCACCCAUGUAUAGAUAAUAAUAAUGGGAGAAGGCACAUGAUCAAU [Mat - Same state - Mayanna Mod - D103] | 20 | 17.2
AACAAUCUAUCUGAGGAUAUCAAGUCAAAGACAUGAGGAUCACCCAUGUGCAGGAAAACUGCAUUUGAGAAGGCAGAUAGAUUGA [SS2: 1108] | 10.3 | 12.1
AACAAUCUAUCUGAGGAUAUCAUGUCAAAGACAUGAGGAUCACCCAUGUAGCAGGAAACUGCAUAUGAGAAGGCAGAUAGAUUGA [SS2: 1118] | 16.3 | 166
AACAAUCUAUCUGAGGAUAUCAUGUCAAAGACAUGAGGAUCACCCAUGUUGCAGGAAACUGCUCAUGAGAAGGCAGAUAGAUUGA [SS2: 1129] | 41 | 828
AACAAUCUAUCUGAGGAUAUGAUGUCAAAGACAUGAGGAUCACCCAUGUCCAGGAAAACUGGAUAUCAGAAGGCAGAUAGAUUGA [SS2: 1104] | 10.2 | 12.9
AACAAUCUAUCUGAGGAUAUGUGUCGAAAGACAUGAGGAUCACCCAUGUAAAAACAUGGAAAAUCACAGAAGGCAGAUAGAUUGA [SS2: 1145] | 127 | 1790
AACCAACAUGAGGAUCACCCAUGUCAACCCAAGCGAGGAUAUCGGAGAAUAACAAUGGGACGAGAAGGCGCGACCU [ss1-2] | 34.4 | 36.9
AACCAACAUGAGGAUCACCCAUGUCUACAGGAUUAAGGAUAUGGGCAGGGCUUCCCUGCACUAGAAGGUGAUCCAA [Enonenen] | 409 | 52.3
AACUAACAUGAGGAUCACCCAUGUAUUCAAACAUGAGGAUAUAUAACACAUCAUCAACAGAUAGAAGGCAUAAAUA [JR_SS001_Sub1204] | 93 | 82.3
AAGAAACAUGAGGAUCACCCAUGUAAAUUCAAGAGAGGAUAUCGUACAUGGAAGAUUCAACGAGAAGGCUCUAGAA [Pariah 3 (MS2 Riboswitches - Same State 1)] | 19.3 | 83
AAGAAACAUGAGGAUCACCCAUGUAAGAUAAACACAGGAUAUGCGAAAAUAAAUAAAUAAGCAGAAGGGUGAAAAG [Mat - Same State 1 - Tesla mod - 75] | 19.9 | 32.4
AAGAAACAUGAGGAUCACCCAUGUAAGAUAAACACAGGAUAUGCGAAUAAAAUAAAUAAAGCAGAAGGGUGAAGAA [Mat - Same State 1 - Tesla mod - D150] | 17.1 | 34.3
AAGAAACAUGAGGAUCACCCAUGUACCCAAAAGGCAGGAUAUGGGAAAGAAAGAAAGAAACCAGAAGGGCCAUGAA [Sogdianus] | 30.1 | 57.1
AAGAAACAUGAGGAUCACCCAUGUGAGAUAAACACAGGAUAUGCGAAAAUAAAUAAAUAAGCAGAAGGGUGAAGAA [Mat - Same State 1 - Tesla mod - 69] | 30.2 | 82.6
AAGAACGUGGUGUAGGAUAUACUAAUAGUCACAUGAGGAUCACCCAUGUUCAUAUAUAUGAACGAGUAGAAGGACGACGAAAAAA [Mat - Same state - Malcolm Mod - D107] | 137 | 147
AAGACACAUGAGGAUCACCCAUGUCAAGAGAGACGAGGAUAUCUGAAUUAAUUAAAUUAAGGAGAAGGCGUGAAAA [Same State of Confusion2] | 23.1 | 58.1
AAGAGACAUGAGGAUCACCCAUGUAGGAUUAUGGGAGGAUAUACAAAGACGAGAGUCAGAGUAGAAGGCCUAGGAC [salish99-ss1-132(!)] | 19.3 | 53.8
AAGGCACAUGAGGAUCACCCAUGUUAGCCGCGACGAGGAUAUGGGAACGCGUCAGCGGAAUUAGAAGGUGUGGUGA [Qusoquan] | 35.6 | 37.8
AAGUCACAUGAGGAUCACCCAUGUCGUAAACGAUGAGGAUAUAGGAAGAAAAAAAAAAAACUAGAAGGUAUUACAA [SameState1-02] | 32.5 | 28.6
AAUAAACAUGAGGAUCACCCAUGUACCUACCACUAAGGAUAUGGGCGAAUAACAGCUCGGCCAGAAGGUAGAGGUG [Onususer] | 116 | 82.9
AAUAACUAUAGCAAGGAUAUCCGAAACAAGACAUGAGGAUCACCCAUGUAAUAAGACAAAAUAUAGGAGAAGGUGCAGGGUGAAA [JR_SS002_Sub010] | 75.3 | 116

— the supplement of paper PMC9170038
